For the experiment, the target named is T1, B-cell lymphoma extra-large protein (Bcl-xL), first 209 amino acids with N-terminal avitag (UniProt Q07817 1-209, biotin on the avitag (BirA biotin ligase); a non-biotinylated form was used as the excess competitor in solution in the off-rate assays).
T1 construct: range 1-209; Expressed in E. coli BL21(DE3); Used in solution (forward assays) or immobilized through biotin on streptavidin plates or beads (reverse assay, off-rate and HTSK experiments); not shown: His tag implied (pET24a NdeI/XhoI, Ni-NTA purification, anti-HIS probe)
Kind of experiment: dissociation of radiolabeled construct from immobilized Bcl-xL with excess Bcl-xL in solution. On the procedure:
The radiolabeled peptides were allowed to bind to 30 pmol immobilized Bcl-xL for 1 hour in sample buffer (1×PBS, 1% (w/v) BSA, 0.1% (v/v) Tween 20, 10 μM biotin). The beads were magnetically separated, and washed 5× with sample buffer. The beads were resuspended in 1 mL of sample buffer containing 3 μM non-biotinylated Bcl-xL (˜100× molar excess relative to immobilized biotinylated Bcl-xL). At various time points, 100 μL of slurry was removed and the beads were magnetically separated and washed. The percent remaining at each time point was determined by dividing the counts per minute (cpm) on beads by total cpm (beads+washes). The peptide off-rate was determined by an exponential fit of the Percent counts on beads vs. Time (s).
The Kd for the peptides is measured by the equilibrium ELISA/AAMP assays (Table 1). The off-rate for these peptides was obtained by measuring the dissociation rate for radiolabeled peptide-mRNA fusions bound to immobilized Bcl-xL. The on-rate was calculated based on the equilibrium Kd measurements and the radiolabeled off-rate.

Ends that are not written are not given here.

From US20180172683A1 (published 2018) come the findings set out here.

B1: E2, radiolabeled in vitro translated construct used for the off-rate of Table 3 (peptide, not shown: small tags and cut ends)
peptide: MIETITIYKYKKAADHFSMSMGSK
modifications: also: 35S-labeled methionine, C-terminal extension: Ser-Gly linker and HA tag, or mRNA fusion
In general, koff refers to the first-order rate constant of dissociation. Consider B1, for which the koff was found to be 1.6e-05 s⁻¹.
